Measurements taken from patent US20230406885A1, “CYCLIC PEPTIDES FOR TRAPPING INTERLEUKIN-1 BETA” (MERCK SHARP & DOHME LLC, priority 2022, published 2023).
*1 amine or outer side, *2 acyl side, *3 side chain or, on linkers, in order; H or OH if unused. [ ]: non-standard residue; d: D form. TyrEtNAc = L-tyrosine O-ethyl acetamide, (S)-3-(4-(2-acetamidoethoxy)phenyl)-2-aminopropanoic acid, CC(=O)NCCOc1ccc(C[C@H](N[*:1])C(=O)[*:2])cc1; 3AzaTyrEtNAc = (S)-3-(6-(2-acetamidoethoxy)pyridin-3-yl)-2-aminopropanoic acid, CC(=O)NCCOc1ccc(C[C@H](N[*:1])C(=O)[*:2])cn1; Pro(trans-4-NH2) = O=C([C@@H]1C[C@@H](N[*:3])CN1[*:1])[*:2]; Trp(βS-Me,4-F) = C[C@@H](c1c[nH]c2cccc(F)c12)[C@H](N)C(=O)O; Bip(4'-COOH) = N[C@@H](Cc1ccc(-c2ccc(C(=O)O)cc2)cc1)C(=O)O; 1Nal(3S-Me) = C[C@@H](c1cccc2ccccc12)[C@H](N)C(=O)O; Ala(indazol-1-yl) = N[C@@H](Cn1ncc2ccccc21)C(=O)O; Ala(indolin-1-yl) = N[C@@H](CN1CCc2ccccc21)C(=O)O; Phe(4-COOH) = N[C@@H](Cc1ccc(C(=O)O)cc1)C(=O)O; h3Pal(5-CN) = N#Cc1cncc(CC[C@H](N)C(=O)O)c1; 1Nal = N[C@@H](Cc1cccc2ccccc12)C(=O)O; hTyr = N[C@@H](CCc1ccc(O)cc1)C(=O)O; dDab = NCC[C@@H](N)C(=O)O; Orn = NCCC[C@H](N)C(=O)O; dNMeA = CN[C@H](C)C(=O)O; Dab = NCC[C@H](N)C(=O)O; Nva = CCC[C@H](N)C(=O)O; Dap = NC[C@H](N)C(=O)O; Aib = CC(C)(N)C(=O)O

B1: SEQ ID NO: 97 (peptide)
peptide: cyclo([TyrEtNAc]W[Phe(4-COOH)]G[Pro(trans-4-NH2)][1Nal(3S-Me)]D[dNMeA]G[Bip(4'-COOH)][1Nal]L[dA]A)
SMILES: CC(=O)NCCOc1ccc(C[C@@H]2NC(=O)[C@H](C)NC(=O)[C@@H](C)NC(=O)[C@H](CC(C)C)NC(=O)[C@H](Cc3cccc4ccccc34)NC(=O)[C@H](Cc3ccc(-c4ccc(C(=O)O)cc4)cc3)NC(=O)CNC(=O)[C@@H](C)N(C)C(=O)[C@H](CC(=O)O)NC(=O)[C@H]([C@@H](C)c3cccc4ccccc34)NC(=O)[C@@H]3C[C@@H](N)CN3C(=O)CNC(=O)[C@H](Cc3ccc(C(=O)O)cc3)NC(=O)[C@H](Cc3c[nH]c4ccccc34)NC2=O)cc1
B2: SEQ ID NO: 94 (peptide)
peptide: cyclo([TyrEtNAc]W[Phe(4-COOH)]G[Pro(trans-4-NH2)][1Nal(3S-Me)]D[dNMeA]G[Bip(4'-COOH)][1Nal][Dap][Aib][h3Pal(5-CN)])
SMILES: CC(=O)NCCOc1ccc(C[C@@H]2NC(=O)[C@H](CCc3cncc(C#N)c3)NC(=O)C(C)(C)NC(=O)[C@H](CN)NC(=O)[C@H](Cc3cccc4ccccc34)NC(=O)[C@H](Cc3ccc(-c4ccc(C(=O)O)cc4)cc3)NC(=O)CNC(=O)[C@@H](C)N(C)C(=O)[C@H](CC(=O)O)NC(=O)[C@H]([C@@H](C)c3cccc4ccccc34)NC(=O)[C@@H]3C[C@@H](N)CN3C(=O)CNC(=O)[C@H](Cc3ccc(C(=O)O)cc3)NC(=O)[C@H](Cc3c[nH]c4ccccc34)NC2=O)cc1
B3: SEQ ID NO: 91 (peptide)
peptide: cyclo([TyrEtNAc]W[Phe(4-COOH)]G[Pro(trans-4-NH2)][1Nal(3S-Me)]D[dNMeA]G[Bip(4'-COOH)][Ala(indolin-1-yl)]G[dDab][h3Pal(5-CN)])
SMILES: CC(=O)NCCOc1ccc(C[C@@H]2NC(=O)[C@H](CCc3cncc(C#N)c3)NC(=O)[C@@H](CCN)NC(=O)CNC(=O)[C@H](CN3CCc4ccccc43)NC(=O)[C@H](Cc3ccc(-c4ccc(C(=O)O)cc4)cc3)NC(=O)CNC(=O)[C@@H](C)N(C)C(=O)[C@H](CC(=O)O)NC(=O)[C@H]([C@@H](C)c3cccc4ccccc34)NC(=O)[C@@H]3C[C@@H](N)CN3C(=O)CNC(=O)[C@H](Cc3ccc(C(=O)O)cc3)NC(=O)[C@H](Cc3c[nH]c4ccccc34)NC2=O)cc1
B4: SEQ ID NO: 92 (peptide)
peptide: cyclo([TyrEtNAc]W[Phe(4-COOH)]G[Pro(trans-4-NH2)][1Nal(3S-Me)]D[dNMeA]G[Bip(4'-COOH)][1Nal][Dab][Aib]G)
SMILES: CC(=O)NCCOc1ccc(C[C@@H]2NC(=O)CNC(=O)C(C)(C)NC(=O)[C@H](CCN)NC(=O)[C@H](Cc3cccc4ccccc34)NC(=O)[C@H](Cc3ccc(-c4ccc(C(=O)O)cc4)cc3)NC(=O)CNC(=O)[C@@H](C)N(C)C(=O)[C@H](CC(=O)O)NC(=O)[C@H]([C@@H](C)c3cccc4ccccc34)NC(=O)[C@@H]3C[C@@H](N)CN3C(=O)CNC(=O)[C@H](Cc3ccc(C(=O)O)cc3)NC(=O)[C@H](Cc3c[nH]c4ccccc34)NC2=O)cc1
B5: SEQ ID NO: 96 (peptide)
peptide: cyclo([TyrEtNAc]W[Phe(4-COOH)]G[Pro(trans-4-NH2)][1Nal(3S-Me)]D[dNMeA]G[Bip(4'-COOH)][1Nal]L[Aib][hTyr])
SMILES: CC(=O)NCCOc1ccc(C[C@@H]2NC(=O)[C@H](CCc3ccc(O)cc3)NC(=O)C(C)(C)NC(=O)[C@H](CC(C)C)NC(=O)[C@H](Cc3cccc4ccccc34)NC(=O)[C@H](Cc3ccc(-c4ccc(C(=O)O)cc4)cc3)NC(=O)CNC(=O)[C@@H](C)N(C)C(=O)[C@H](CC(=O)O)NC(=O)[C@H]([C@@H](C)c3cccc4ccccc34)NC(=O)[C@@H]3C[C@@H](N)CN3C(=O)CNC(=O)[C@H](Cc3ccc(C(=O)O)cc3)NC(=O)[C@H](Cc3c[nH]c4ccccc34)NC2=O)cc1
B6: SEQ ID NO: 9 (peptide)
peptide: cyclo([3AzaTyrEtNAc]W[Phe(4-COOH)]G[Pro(trans-4-NH2)][Trp(βS-Me,4-F)]D[dNMeA]G[Bip(4'-COOH)]KL[dA][hTyr])
SMILES: CC(=O)NCCOc1ccc(C[C@@H]2NC(=O)[C@H](CCc3ccc(O)cc3)NC(=O)[C@@H](C)NC(=O)[C@H](CC(C)C)NC(=O)[C@H](CCCCN)NC(=O)[C@H](Cc3ccc(-c4ccc(C(=O)O)cc4)cc3)NC(=O)CNC(=O)[C@@H](C)N(C)C(=O)[C@H](CC(=O)O)NC(=O)[C@H]([C@@H](C)c3c[nH]c4cccc(F)c34)NC(=O)[C@@H]3C[C@@H](N)CN3C(=O)CNC(=O)[C@H](Cc3ccc(C(=O)O)cc3)NC(=O)[C@H](Cc3c[nH]c4ccccc34)NC2=O)cn1
B7: SEQ ID NO: 98 (peptide)
peptide: cyclo([TyrEtNAc]W[Phe(4-COOH)]G[Pro(trans-4-NH2)][1Nal(3S-Me)]D[dNMeA]G[Bip(4'-COOH)][1Nal][Nva][dA]A)
SMILES: CCC[C@@H]1NC(=O)[C@H](Cc2cccc3ccccc23)NC(=O)[C@H](Cc2ccc(-c3ccc(C(=O)O)cc3)cc2)NC(=O)CNC(=O)[C@@H](C)N(C)C(=O)[C@H](CC(=O)O)NC(=O)[C@H]([C@@H](C)c2cccc3ccccc23)NC(=O)[C@@H]2C[C@@H](N)CN2C(=O)CNC(=O)[C@H](Cc2ccc(C(=O)O)cc2)NC(=O)[C@H](Cc2c[nH]c3ccccc23)NC(=O)[C@H](Cc2ccc(OCCNC(C)=O)cc2)NC(=O)[C@H](C)NC(=O)[C@@H](C)NC1=O
B8: SEQ ID NO: 99 (peptide)
peptide: cyclo([TyrEtNAc]W[Phe(4-COOH)]G[Pro(trans-4-NH2)][1Nal(3S-Me)]D[dNMeA]G[Bip(4'-COOH)][1Nal][Orn][Aib][hTyr])
SMILES: CC(=O)NCCOc1ccc(C[C@@H]2NC(=O)[C@H](CCc3ccc(O)cc3)NC(=O)C(C)(C)NC(=O)[C@H](CCCN)NC(=O)[C@H](Cc3cccc4ccccc34)NC(=O)[C@H](Cc3ccc(-c4ccc(C(=O)O)cc4)cc3)NC(=O)CNC(=O)[C@@H](C)N(C)C(=O)[C@H](CC(=O)O)NC(=O)[C@H]([C@@H](C)c3cccc4ccccc34)NC(=O)[C@@H]3C[C@@H](N)CN3C(=O)CNC(=O)[C@H](Cc3ccc(C(=O)O)cc3)NC(=O)[C@H](Cc3c[nH]c4ccccc34)NC2=O)cc1
B9: SEQ ID NO: 93 (peptide)
peptide: cyclo([TyrEtNAc]W[Phe(4-COOH)]G[Pro(trans-4-NH2)][1Nal(3S-Me)]D[dNMeA]G[Bip(4'-COOH)][1Nal][Dab][Aib][hTyr])
SMILES: CC(=O)NCCOc1ccc(C[C@@H]2NC(=O)[C@H](CCc3ccc(O)cc3)NC(=O)C(C)(C)NC(=O)[C@H](CCN)NC(=O)[C@H](Cc3cccc4ccccc34)NC(=O)[C@H](Cc3ccc(-c4ccc(C(=O)O)cc4)cc3)NC(=O)CNC(=O)[C@@H](C)N(C)C(=O)[C@H](CC(=O)O)NC(=O)[C@H]([C@@H](C)c3cccc4ccccc34)NC(=O)[C@@H]3C[C@@H](N)CN3C(=O)CNC(=O)[C@H](Cc3ccc(C(=O)O)cc3)NC(=O)[C@H](Cc3c[nH]c4ccccc34)NC2=O)cc1
B10: SEQ ID NO: 90 (peptide)
peptide: cyclo([TyrEtNAc]W[Phe(4-COOH)]G[Pro(trans-4-NH2)][1Nal(3S-Me)]D[dNMeA]G[Bip(4'-COOH)][Ala(indazol-1-yl)]G[dDab][h3Pal(5-CN)])
SMILES: CC(=O)NCCOc1ccc(C[C@@H]2NC(=O)[C@H](CCc3cncc(C#N)c3)NC(=O)[C@@H](CCN)NC(=O)CNC(=O)[C@H](Cn3ncc4ccccc43)NC(=O)[C@H](Cc3ccc(-c4ccc(C(=O)O)cc4)cc3)NC(=O)CNC(=O)[C@@H](C)N(C)C(=O)[C@H](CC(=O)O)NC(=O)[C@H]([C@@H](C)c3cccc4ccccc34)NC(=O)[C@@H]3C[C@@H](N)CN3C(=O)CNC(=O)[C@H](Cc3ccc(C(=O)O)cc3)NC(=O)[C@H](Cc3c[nH]c4ccccc34)NC2=O)cc1
B11: SEQ ID NO: 95 (peptide)
peptide: cyclo([TyrEtNAc]W[Phe(4-COOH)]G[Pro(trans-4-NH2)][1Nal(3S-Me)]D[dNMeA]G[Bip(4'-COOH)][1Nal]L[Aib]G)
SMILES: CC(=O)NCCOc1ccc(C[C@@H]2NC(=O)CNC(=O)C(C)(C)NC(=O)[C@H](CC(C)C)NC(=O)[C@H](Cc3cccc4ccccc34)NC(=O)[C@H](Cc3ccc(-c4ccc(C(=O)O)cc4)cc3)NC(=O)CNC(=O)[C@@H](C)N(C)C(=O)[C@H](CC(=O)O)NC(=O)[C@H]([C@@H](C)c3cccc4ccccc34)NC(=O)[C@@H]3C[C@@H](N)CN3C(=O)CNC(=O)[C@H](Cc3ccc(C(=O)O)cc3)NC(=O)[C@H](Cc3c[nH]c4ccccc34)NC2=O)cc1
B12: SEQ ID NO: 122 (Example No. 122) (peptide)
peptide: cyclo([TyrEtNAc]W[Phe(4-COOH)]G[Pro(trans-4-NH2)][1Nal(3S-Me)]D[dNMeA]G[Bip(4'-COOH)]WG[dDab][h3Pal(5-CN)])
SMILES: CC(=O)NCCOc1ccc(C[C@@H]2NC(=O)[C@H](CCc3cncc(C#N)c3)NC(=O)[C@@H](CCN)NC(=O)CNC(=O)[C@H](Cc3c[nH]c4ccccc34)NC(=O)[C@H](Cc3ccc(-c4ccc(C(=O)O)cc4)cc3)NC(=O)CNC(=O)[C@@H](C)N(C)C(=O)[C@H](CC(=O)O)NC(=O)[C@H]([C@@H](C)c3cccc4ccccc34)NC(=O)[C@@H]3C[C@@H](N)CN3C(=O)CNC(=O)[C@H](Cc3ccc(C(=O)O)cc3)NC(=O)[C@H](Cc3c[nH]c4ccccc34)NC2=O)cc1
B13: SEQ ID NO: 121 (Example No. 121) (peptide)
peptide: cyclo([TyrEtNAc]W[Phe(4-COOH)]G[Pro(trans-4-NH2)][1Nal(3S-Me)]D[dNMeA]G[Bip(4'-COOH)]W[Dap][dNMeA][hTyr])
SMILES: CC(=O)NCCOc1ccc(C[C@@H]2NC(=O)[C@H](CCc3ccc(O)cc3)NC(=O)[C@@H](C)N(C)C(=O)[C@H](CN)NC(=O)[C@H](Cc3c[nH]c4ccccc34)NC(=O)[C@H](Cc3ccc(-c4ccc(C(=O)O)cc4)cc3)NC(=O)CNC(=O)[C@@H](C)N(C)C(=O)[C@H](CC(=O)O)NC(=O)[C@H]([C@@H](C)c3cccc4ccccc34)NC(=O)[C@@H]3C[C@@H](N)CN3C(=O)CNC(=O)[C@H](Cc3ccc(C(=O)O)cc3)NC(=O)[C@H](Cc3c[nH]c4ccccc34)NC2=O)cc1

What follows are binders tested against Recombinant human IL-1β (BioLegend 579404) (human, UniProt P01584 117-269) (assay: cell-based or functional assay).

Binder | MRC5 IC50 [nM]
B1 | 0.294
B2 | 0.0639
B3 | 0.0234
B4 | 0.457
B5 | 0.464
B6 | 0.118
B7 | 0.494
B8 | 0.256
B9 | 0.12
B10 | 0.0507
B11 | 0.422

Target: Recombinant human IL-1β (BioLegend 579404) (human, UniProt P01584 117-269)
Assay: cell-based or functional assay
Remark: another data set of the same source

Binder | MRC5 IC50 [nM]
B12 | 0.0248
B13 | 0.085
